Results from US7205387B2, “Recombinant polypeptide useful for neurotrophin receptor mediated gene delivery and as neurotrophin agonist” (Agency for Science, Technology and Research, priority 2003, dated 2007).
Bridge positions count the residues as written; N and C are the ends. Ends that are not written are not given here.

How the values were obtained:
[1] = test system: Akt; experiment: Phospho-Akt immunoblot in PC12 cells; format: cell-based, rat; conditions: 5 μM peptide, 20 min
Method: Immunoblotting experiments were conducted to test whether the chimeric polypeptides could, like NGF, induce autophosphorylation of TrkA and activation of its signal transduction pathways. PC12 cells were seeded in 6-well plates at a density of 2×10^6 cells/well and cultured in RPMI 1640 containing 0.5% FBS and 0.25% horse serum for 2 days. The low serum concentrations were necessary to reduce the basal levels of phosphorylation. The medium was refreshed two hours before beginning treatment. The cells were incubated with the polypeptides or NGF in serum-free medium for 15–20 min. The cells were then washed in PBS, lysed, and sonicated. The cell lysates were resolved by SDS-PAGE and transferred to a nitrocellulose membrane for immunoblotting. The primary antibodies used include Phospho-TrkA (Tyr490) antibody, Phospho-p44/p42 MAPK (Thr202/Tyr204) monoclonal antibody, and Phospho-Akt (Ser473) monoclonal antibody, all obtained from Cell Signaling Technology (Beverly, Mass., USA). Colorimetric detection was performed by standard techniques after using horse-radish peroxidase-conjugated secondary antibodies. In some experiments, TrkA tyrosine kinase inhibitors K-252a or AG879 (both from Calbiochem, La Jolla, Calif., USA) were used. In these cases, PC12 cells were incubated with 100 nM K-252a or 10 μM AG879 before addition of polypeptides or NGF.

[2] = test system: PC12 cells; experiment: PC12 neurite outgrowth assay; format: cell-based, rat; conditions: 8 μM, 3 days
Method: Chimeric polypeptides were examined for their ability to induce neurite outgrowth in PC12 cells. Polypeptides in a range of concentrations were added to PC12 cells cultured in serum-enriched RPMI-1640 medium. The cells were incubated for three days and photographed every 24 h.

[3] = test system: plasmid DNA; experiment: Ethidium bromide displacement assay; format: binding; conditions: 0.8 μg DNA pre-mixed with ethidium bromide
Method: In this assay, the quenching of the fluorescence of ethidium bromide intercalated in DNA is used to measure DNA-binding and condensing ability. Ethidium bromide (153 μl of a 0.01% solution) was added to 96 μg of plasmid DNA and diluted with water to a final volume of 6 ml. In wells of a 96-well microplate, various amounts of polypeptide were placed in a volume of 50 μl, to which 50 μl of the DNA-ethidium bromide solution was added. After five minutes of mixing, 100 μl of water was added. The fluorescence reading was taken using wavelengths of 485 nm for excitation and 593 nm for emission on a SPECTRAFluor Plus microplate reader (TECAN, Maennedorf, Switzerland).

Molecule: CTTTHTFVKALTMDGKQAAWRFIRIDTACKKKKKKKKKK (CTTTHTFVKALTMDGKQAAWRFIRIDTACKKKKKKKKKK; disulfide 1-29) [NL4-10K]
- activation (phosphorylation) of Akt [1]: induced activation

B1: SPKR4NL1-2: chimeric protein: (SPKR)4 DNA-binding domain, α-helical linker, targeting domain with loops 1 and 2 of NGF (aa 17–67), His10 tag (protein)
chain: MGHHHHHHHHHHSSGHIEGRHMSPKRSPKRSPKRSPKRGGTYLSEDELKAAEAAFKRHNPTGSCSVSVWVGDKTTATDIKGKEVMVLGEVNINNSVFKQYFFETKCRDPNPVDSG
modifications: SPKR4NL1-2
- neurite outgrowth [2]: promotes neurite outgrowth
- N/P ratio at which ethidium bromide fluorescence dropped sharply (DNA condensation) [3]: about 10 N/P ratio
